Data reported in article PMC3764174.

Molecular target: PCNA3_(N106R)-P450cam fusion protein (Sulfolobus solfataricus | Pseudomonas putida)

substrate-dependent O2 consumption rate (monooxygenase activity) of PUPPET-P4 at 18 nM complex, 25°C: 6.5 µM/min
Substance: PCNA2-G4S(P5)4G4S-PdX
